These results are taken from patent US20210122824A1 (ADAGENE, published 2021).

The target in assay [1] is T1, human PD-L1-Fc fusion protein (Sino Biological Cat #10084-H02H) (human, UniProt Q9NZQ7 19-239).
T1 construct: bought; not shown: Fc part of the bought fusion
Briefly: BLI (ForteBio), PD-L1-Fc on AHC sensor, Fab in solution. Background: BLI is a label-free optical method that tracks binding on a fibre tip over time.

For assay [2], the target named is T2, mouse PD-L1-Fc fusion protein (mouse, UniProt Q9EP73 19-238, limits assumed).
T2 construct: not shown: Fc part
T2 sequence (Q9EP73 19-238 limits assumed): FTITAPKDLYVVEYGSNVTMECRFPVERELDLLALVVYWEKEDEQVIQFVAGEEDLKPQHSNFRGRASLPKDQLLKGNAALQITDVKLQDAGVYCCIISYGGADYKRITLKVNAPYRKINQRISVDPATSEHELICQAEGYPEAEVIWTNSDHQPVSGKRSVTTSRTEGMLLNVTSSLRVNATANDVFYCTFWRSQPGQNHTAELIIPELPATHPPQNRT
Briefly: BLI (ForteBio), PD-L1 on AHC sensor, Fab in solution.

As usually defined, the Kd is the equilibrium constant for the complex coming apart.

Where a chain is given by its changes, count along the chain named.

T1 sequence (Q9NZQ7 19-239 limits assumed): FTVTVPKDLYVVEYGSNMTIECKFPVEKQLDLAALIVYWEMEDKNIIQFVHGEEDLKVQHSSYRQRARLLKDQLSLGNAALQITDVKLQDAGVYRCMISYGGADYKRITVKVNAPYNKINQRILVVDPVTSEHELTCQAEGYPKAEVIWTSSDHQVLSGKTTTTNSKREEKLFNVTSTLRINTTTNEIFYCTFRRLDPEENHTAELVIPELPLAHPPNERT

B1: B13002 (Fab, V domains shown)
VH: EVQLVESGGGLVQPGGSLRLSCAASGYTFSNYGIHWVRQAPGKGLEWIGWIYPSGGGTKYAQKFQGRVTISRDNSKNTLYLQLNSLRAEDTAVYYCAREGGGYGYALDYWGQGTLVTVSS
VL: DIQLTQSPSSLSASVGDRVTITCRASQGVSSYLAWYQQKPGKAPKLLIYDASNLETGVPSRFSGSGSGTDFTLTISSLQPEDFATYYCQQYDAWPYTFGQGTKVEIKR
notes: Fab from E. coli
In the case of B1, the affinity in assay [1], expressed as Kd, was 0.251 nM.

B2: B14622 (Fab, V domains shown)
VH: B1 VH
VL: DIQLTQSPSSLSASVGDRVTITCRASQSVDFYGKSFLDWYQQKPGKAPKLLIYDASNRATGIPSRFSGSGSGTDFTLTISSLQPEDFATYYCQQYDSWPYTFGQGTKVEIKR
notes: Fab from E. coli
For B2, the Kd in assay [1] worked out at 0.274 nM.

B3: B14638 (Fab, V domains shown)
VH: B1 VH
VL: DIQLTQSPSSLSASVGDRVTITCRASQSVGSIYLGWYQQKPGKAPKLLIYDASNRATGIPSRFSGSGSGTDFTLTISSLQPEDFATYYCQQYDSWPYTFGQGTKVEIKR
notes: Fab from E. coli
B3 gave a dissociation constant (Kd) in assay [1] of 0.314 nM.

B4: B14650 (Fab, V domains shown)
VH: B1 VH
VL: B2 VL with Q27E, S97H
notes: Fab from E. coli
B4 yielded a Kd in assay [1] of 0.357 nM.

B5: B14673 (Fab, V domains shown)
VH: B1 VH
VL: B2 VL with Q27E, D38A, N57S, R58L, A59E, T60S, I62V
notes: Fab from E. coli
In turn, B5 gave a Kd in assay [1] of 0.323 nM.

B6: B14033 (Fab, V domains shown)
VH: B1 VH
VL: B1 VL with V29I, S30G, Y32F, N53S, T56S, A93Y
notes: Fab from E. coli
On to B6, for which the affinity in assay [1], expressed as Kd, was 0.875 nM.

B7: B14634 (Fab, V domains shown)
VH: B1 VH
VL: B1 VL with G28S, S31P
notes: Fab from E. coli
As to B7, the Kd in assay [1] was determined as 0.207 nM.

B8: B14651 (Fab, V domains shown)
VH: B1 VH
VL: B2 VL with Q27E, Y32H, D38A, S97H
notes: Fab from E. coli
In assay [1], B8 displayed a Kd of 0.301 nM.

B9: B14681 (Fab, V domains shown)
VH: B1 VH
VL: B2 VL with Y32H, K34I, S97H
notes: Fab from E. coli
In turn, B9 yielded an equilibrium dissociation constant (Kd) in assay [1] of 0.543 nM.

B10: B14615 (Fab, V domains shown)
VH: B1 VH
VL: B2 VL with D38A, N57S, R58L, A59E, T60S, I62V, S97H
notes: Fab from E. coli
Consider B10, for which the Kd in assay [1] was 0.228 nM.

B11: B14665 (Fab, V domains shown)
VH: B1 VH
VL: B2 VL with D38A, N57S, R58L, A59E, T60S, I62V
notes: Fab from E. coli
Turning to B11, binding in assay [1] was put at a Kd of 0.369 nM.

B12: B13005 (Fab, V domains shown)
VH: B1 VH
VL: B1 VL with G28S
notes: Fab from E. coli
In turn, B12 registered a Kd in assay [1] of 0.346 nM.

B13: B14689 (Fab, V domains shown)
VH: B1 VH
VL: B2 VL with N57S, R58L, A59E, T60S, I62V, S97H
notes: Fab from E. coli
With B13, the Kd in assay [1] is 0.163 nM.

B14: B14654 (Fab, V domains shown)
VH: B1 VH
VL: B1 VL with G28S, S31P, L54R, E55A, V58I
notes: Fab from E. coli
In assay [1], B14 displayed a Kd of 0.232 nM.

B15: B14631 (Fab, V domains shown)
VH: B1 VH
VL: B2 VL with Q27E, Y32F, D38A, R58L, A59E, I62V, S97H
notes: Fab from E. coli
With B15, the Kd in assay [1] was 0.183 nM.

B16: B14690 (Fab, V domains shown)
VH: B1 VH
VL: B2 VL with Y32H, K34I, R58L, A59E, I62V
notes: Fab from E. coli
B16 returned an equilibrium dissociation constant (Kd) in assay [1] of 0.467 nM.

B17: B14674 (Fab, V domains shown)
VH: B1 VH
VL: B1 VL with G28S, V29I, S30E, S31K, Y32W, N53S, T56S
notes: Fab from E. coli
B17: binding in assay [1] was characterised by a dissociation constant (Kd) of 0.502 nM.

B18: B14614 (Fab, V domains shown)
VH: B1 VH
VL: B2 VL with Q27E
notes: Fab from E. coli
Consider B18, for which the Kd in assay [1] amounted to 0.353 nM.

B19: B14645 (Fab, V domains shown)
VH: B1 VH
VL: B2 VL with R58L, A59E, I62V, S97A
notes: Fab from E. coli
B19 showed a Kd in assay [1] of 0.296 nM.

B20: B14642 (Fab, V domains shown)
VH: B1 VH
VL: B2 VL with D38A, N57S, R58L, A59E, T60S, I62V, S97A
notes: Fab from E. coli
In assay [1], B20 returned a Kd of 0.189 nM.

B21: B14658 (Fab, V domains shown)
VH: B1 VH
VL: B2 VL with Y32H
notes: Fab from E. coli
For the molecule B21, binding in assay [1] was put at a Kd of 0.142 nM.

B22: B14644 (Fab, V domains shown)
VH: B1 VH
VL: B2 VL with Q27E, D38A, S97Y
notes: Fab from E. coli
As for B22, binding in assay [1] was put at a Kd of 0.248 nM.

B23: B13004 (Fab, V domains shown)
VH: B1 VH
VL: B1 VL with V29I, S31P, Y32W, L54R, E55A, V58I, A93S
notes: Fab from E. coli
The molecule B23 showed a Kd in assay [1] of 0.3 nM.

B24: B14633 (Fab, V domains shown)
VH: B1 VH
VL: B2 VL with Q27E, Y32H, K34I, D38A, S97H
notes: Fab from E. coli
In assay [1], B24 returned an equilibrium dissociation constant (Kd) of 0.322 nM.

B25: B14627 (Fab, V domains shown)
VH: B1 VH
VL: B1 VL with G28S, Y32W, N53S, T56S, A93S
notes: Fab from E. coli
In assay [1], B25 registered an equilibrium dissociation constant (Kd) of 0.182 nM.

B26: B14652 (Fab, V domains shown)
VH: B1 VH
VL: B1 VL with S31P, Y32W, N53S, T56S
notes: Fab from E. coli
B26 gave an equilibrium dissociation constant (Kd) in assay [1] of 0.294 nM.

B27: B14617 (Fab, V domains shown)
VH: B1 VH
VL: B2 VL with Q27E, Y32F, D38A, N57S, R58L, A59E, T60S, I62V
notes: Fab from E. coli
B27 gave a Kd in assay [1] of 0.288 nM.

B28: B15016 (Fab, V domains shown)
VH: EVQLVESGGGLVQPGGSLRLSCAASGYSISSGYYWGWIRQAPGKGLEWIGIIYPSGGGTNYAQKFQGRVTISRDNSKNTLYLQLNSLRAEDTAVYYCARGGGLGFDYWGQGTLVTVSS
VL: DIQLTQSPSSLSASVGDRVTITCRASQTIPSFLNWYQQKPGKAPKLLIYAASSLQSGVPSRFSGSGSGTDFTLTISSLQPEDFATYYCQHYTSWPRQFTFGQGTKVEIKR
notes: Fab from E. coli
As to B28, the figures for the Kd in assay [2] and in assay [1] were 2.84 nM and 3.56 nM, respectively.

B29: B15041 (Fab, V domains shown)
VH: B28 VH
VL: B28 VL with T28S, T92I
notes: Fab from E. coli
In the case of B29, the Kd in assay [2] amounted to 1.67 nM; in assay [1] it was 1.68 nM.

B30: B15074 (Fab, V domains shown)
VH: B28 VH
VL: B28 VL with S53T, T92I, Q97V
notes: Fab from E. coli
With B30, the figures for the Kd in assay [2] and in assay [1] were 2.98 nM and 4.31 nM, respectively.

B31: B15014 (Fab, V domains shown)
VH: B28 VH
VL: B28 VL with T28D, S31K, N34A, S53T, T92V
notes: Fab from E. coli
Regarding B31, the results for the Kd in assay [2] and in assay [1] were 3.87 nM and 2.43 nM, respectively.

B32: B15012 (Fab, V domains shown)
VH: B28 VH
VL: B28 VL with S53T, T92S, Q97G
notes: Fab from E. coli
For B32, the Kd in assay [2] is 2.03 nM; in assay [1] it was 1.76 nM.

B33: B15024 (Fab, V domains shown)
VH: B28 VH
VL: B28 VL with T28S, S31T, S53T, T92V, Q97L
notes: Fab from E. coli
For B33, the Kd turned out to be 3.48 nM in assay [2] and 4.52 nM in assay [1].

B34: B15022 (Fab, V domains shown)
VH: B28 VH
VL: B28 VL with T28S, S53T, H90Q, T92S, Q97L
notes: Fab from E. coli
For B34, the equilibrium dissociation constant (Kd) in assay [2] turned out to be 3.03 nM; in assay [1] it was 3.68 nM.

B35: B15082 (Fab, V domains shown)
VH: B28 VH
VL: B28 VL with T92G, Q97R
notes: Fab from E. coli
As for B35, the Kd in assay [2] is 3.23 nM; in assay [1], 4.79 nM.

B36: B14032 (Fab, V domains shown)
VH: B28 VH
VL: B28 VL with R24Q, T28D, S31T, N34A, H90Q, T92V, Q97G
notes: Fab from E. coli
Regarding B36, the Kd amounted to 4.84 nM in assay [2] and 5.11 nM in assay [1].
